From patent publication US20240425587A1 (Alector, published 2024) come the findings set out here.

Where only a bound is given, the exact number is not on record here.

The chains are these.
B1: D5 (antibody, V domains shown)
VH: EVKLDETGGGLVQPGRPMKLSCVASGFTFSDYWMNWVRQSPEKGLEWVAQIRNKLYNYETYYSDSVKGRFTISRDDSKSSVYLQMNNLRAEDMGIYYCTVGLAMDYWGQGTSVTVSS
VL: DIQMTQSSSSFSVSLGDRVTITCKASEDIYNRLAWYQQKPGNAPRLLISGATSLETGVPSRFSGSGSGKEYTLNITSLQTEDVATYYCQQYWSTPTFGGGTKLEIK
notes: second hybridoma campaign
B2: D6 (antibody, V domains shown)
VH: EVQLQQSGPELVKPGASVKMSCKASGYTFTDYYMDWVKQSHGESFEWIGRVNPYTGDSSYNQKFKGKATLTVDKSSNTAYLEFNSLTSEGSAVYYCARSDGYHYKYAMDYWGQGTSVTVSS
VL: DVVMTQTPLSLPVSLGDQASISCRSSQSLVHSTGNTYLHWYLQKPGQSPNLLIYKISNRFSGVPDRFSGSGSGTDFTLKISRVEAEDLGVYFCSQSTHVPYTFGGGTKLEIK
notes: second hybridoma campaign; same VH/VL as D8
B3: D8 (antibody, V domains shown)
VH: B2 VH
VL: B2 VL
notes: second hybridoma campaign; same VH/VL as D6
B4: E20 (antibody, V domains shown)
VH: QIQLVQSGPELKKPGETVKISCKASGYTFTTYGMSWVKQAPGKGLKWMGWINTYSGVPTYADDFKGRFAFSLETSASTAYLQINNLKNEDTATYFCARYDGYLDYWGQGTTLTVSS
VL: DIVLTQSPASLAVSLGQRATISCKASQSVDYDGDSYMNWYQQKPGQPPKLLIYAASNLESGIPARFSGSGSGTDFTLNIHPVEEEDAATYYCQQSNEDLTFGSGTKLEIK
notes: B-cell cloning campaign (mice)
B5: B1 (antibody, V domains shown)
VH: DVKLVESGGGLVKLGGSLKLSCAASGFTFSSYYMSWVRQTPEKRLEWVAAINSNGDRSYYPDTVKGRFTISRDNAKNTLYLQMSSLKSEDTAFYYCASHGNYYGSPWFAYWGQGTLVTVSA
VL: ETTVTQSPASLSVATGEKVTIRCKTSTDIDDDMNWYQQKPGEPPKLLISEGNTLRPGVPSRFSSSGYGTDFVFTIENTLSEDVADYYCLQNDHMPLTFGGGTKLEIK
notes: as for B4
B6: D2 (antibody, V domains shown)
VH: QIQLGQSGPELKRPRETVKISCKASGYTFTTYGMSWVKQAPGKGLRWMGWINTHSGVPAYADDFKGRFAFSLETSANTAFLQINNLENEDTATYFCAKDYNWGMDYWGQGTSVIVSS
VL: QLVLTQSSSASFSLGASAKLTCTLSSQHSTYTIEWYQQQPLKPPKYVMEVKKDGSHSTGDGIPDRFSGSSSGADRYLSISNIQPEDEAIYICGVGDSIKEQFVYVFGGGTKVTVL
notes: second hybridoma campaign
B7: E12 (antibody, V domains shown)
VH: QVQLQQSGAELAKPGASVKLSCKASGYTFTSYWIHWVKQRPGQGLEWIGYINPSSGDTEYNQKFKDKATLTADKSSNTAYMQLSSLTYEDSAVYYCARSAPDDGYYDYAMDYWGQGTSVTVSS
VL: DIVMTQSRKFMSTSVGDRVSVTCKASQNVGSNVAWYQQKPGQSPKGLTYSASYRYSGVPDRFTGSGSGTDFTLTISNVQSEDLAEYFCQQYNSYPYTFGGGTKLEIK
notes: as for B4

T3 sequence (Q2YFS3 32-302): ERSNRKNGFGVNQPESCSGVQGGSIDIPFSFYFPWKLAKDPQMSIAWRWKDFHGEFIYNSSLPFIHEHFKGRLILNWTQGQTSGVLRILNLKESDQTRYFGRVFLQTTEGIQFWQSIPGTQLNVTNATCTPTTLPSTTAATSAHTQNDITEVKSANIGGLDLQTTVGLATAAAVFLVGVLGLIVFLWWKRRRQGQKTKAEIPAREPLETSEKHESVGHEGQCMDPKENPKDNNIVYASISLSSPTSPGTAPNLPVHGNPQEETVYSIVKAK
T5 sequence (Q9UKJ1 20-197 limits assumed): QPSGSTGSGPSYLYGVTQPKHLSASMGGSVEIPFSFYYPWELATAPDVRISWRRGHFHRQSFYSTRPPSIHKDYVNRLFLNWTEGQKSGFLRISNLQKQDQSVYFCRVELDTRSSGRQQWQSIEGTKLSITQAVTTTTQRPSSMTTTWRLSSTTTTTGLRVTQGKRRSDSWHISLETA
T6 sequence (Q9UKJ1 20-197 limits assumed): as above
Sequence of cynomolgus PILRA, ectopically expressed on 293 cells (cynomolgus monkey) (chain, as listed by the source): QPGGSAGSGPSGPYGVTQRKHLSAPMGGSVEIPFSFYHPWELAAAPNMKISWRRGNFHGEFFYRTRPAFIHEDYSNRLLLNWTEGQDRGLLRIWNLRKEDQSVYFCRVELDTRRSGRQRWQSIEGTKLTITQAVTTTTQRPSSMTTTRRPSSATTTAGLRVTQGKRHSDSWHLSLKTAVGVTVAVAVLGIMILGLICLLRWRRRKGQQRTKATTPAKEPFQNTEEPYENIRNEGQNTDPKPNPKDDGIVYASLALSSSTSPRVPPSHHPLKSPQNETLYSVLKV
T4 sequence (Q2YFS2 29-224): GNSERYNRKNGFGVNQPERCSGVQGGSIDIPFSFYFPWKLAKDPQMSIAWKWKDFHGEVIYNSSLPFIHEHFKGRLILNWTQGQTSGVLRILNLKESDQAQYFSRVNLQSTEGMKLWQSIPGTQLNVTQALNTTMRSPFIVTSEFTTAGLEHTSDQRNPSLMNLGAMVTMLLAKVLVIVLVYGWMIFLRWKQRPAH

The target in the first assay is T1, human PILRA, G78 variant, ectopically expressed on 293 cells (human, UniProt Q9UKJ1 20-303).
T1 construct: the cells are labelled G78; also called hA G78 OE; hA
T1 sequence (Q9UKJ1 other isoform, or with tags, fused parts or gaps mutant): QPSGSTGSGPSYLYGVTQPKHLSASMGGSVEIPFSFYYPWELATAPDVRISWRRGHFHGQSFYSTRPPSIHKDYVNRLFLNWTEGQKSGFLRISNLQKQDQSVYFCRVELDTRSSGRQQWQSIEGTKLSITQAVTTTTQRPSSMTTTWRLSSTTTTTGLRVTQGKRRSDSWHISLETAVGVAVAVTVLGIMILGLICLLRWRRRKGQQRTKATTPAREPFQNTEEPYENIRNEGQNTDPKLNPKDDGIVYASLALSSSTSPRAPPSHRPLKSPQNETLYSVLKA
Briefly: flow cytometry, 293 cells expressing target. As for the experimental part:
(§1) Briefly, conditioned media containing antibodies were incubated with 293 cells for 30 min at 4° C., washed twice, and then detected with anti-mouse IgG Alexa 647.
(In general: In flow cytometry, cells or beads pass a laser one at a time.)
Molecule B1 registered a 50% effective concentration (EC50) of 1 µg/mL.
Regarding B2, the EC50 was 0.12 µg/mL.
The same measure, in the same setting: as for B3, the figure is 0.1 µg/mL.
As to B4, the EC50 was determined as 33.5 µg/mL.
B5 gave an EC50 of 0.96 µg/mL.
Same read-out and setting: the result for B6 reads 3.4 µg/mL.
On the same count and under the same terms, the result for B7 reads 31 µg/mL.

For another assay, the target named is T2, human PILRB, ectopically expressed on 293 cells (human, UniProt Q9UKJ0 20-227).
T2 construct: also called hB
T2 sequence (Q9UKJ0 20-227): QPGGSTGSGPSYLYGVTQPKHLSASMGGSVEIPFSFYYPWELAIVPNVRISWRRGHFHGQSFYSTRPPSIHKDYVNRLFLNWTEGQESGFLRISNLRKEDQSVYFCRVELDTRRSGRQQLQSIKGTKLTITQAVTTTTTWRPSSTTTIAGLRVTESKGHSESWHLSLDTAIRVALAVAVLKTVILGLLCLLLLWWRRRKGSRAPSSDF
Nature of the assay: flow cytometry, 293 cells expressing target. Here is the method:
as §1
As to B1, the binding result is recorded as “no binding”.
For the molecule B2, it took 0.47 µg/mL to reach a half-maximal effect (EC50).
The same measure, in the same setting: as for B3, the figure is 0.35 µg/mL.
Turning to B4, the binding result is “no binding”.
B5: the binding result is “no binding”.
In the case of B6, the binding result is “no binding”.
Same read-out and setting: as for B7, the entry is “no binding”.

A further assay has as its target cynomolgus PILRA, ectopically expressed on 293 cells (cynomolgus monkey). Briefly: flow cytometry, 293 cells expressing target. Here is the method: as §1
For B1, the binding result is on record as “no binding”.
With B2, the EC50 worked out at 0.05 µg/mL.
On the same count and under the same terms, as for B3, the figure is 0.1 µg/mL.
B4: the binding result is “no binding”.
The molecule B5 displayed an EC50 of 2 µg/mL.
B6: the binding result is recorded as “no binding”.
The same measure, in the same setting: as for B7, the entry is “no binding”.

A further assay has as its target T3, murine PILRA, ectopically expressed on 293 cells (murine, UniProt Q2YFS3 32-302).
T3 construct: also called mA
Nature of the assay: flow cytometry, 293 cells expressing target. Here is the method:
as §1
For the molecule B1, the binding result was “no binding”.
The same measure, in the same setting: the result for B2 reads “no binding”; that for B3, “no binding”; that for B4, “no binding”.
Same read-out and setting: as for B5, the entry is “no binding”; as for B6, “no binding”; as for B7, “no binding”.

A further assay concerns the target T4, murine PILRB, ectopically expressed on 293 cells (murine, UniProt Q2YFS2 29-224).
T4 construct: whole, on cells; also called mB
Nature of the assay: flow cytometry, 293 cells expressing target. As for the experimental part: as §1
Turning to B1, the binding result was “no binding”.
As for B2, the binding result is listed as “no binding”.
B3: the binding result is “no binding”.
Still for that read-out and setting: as for B4, the entry is “no binding”.
Turning to B5, the binding result was “no binding”.
Regarding B6, the binding result is on record as “no binding”.
Same read-out and setting: the result for B7 reads “no binding”.

Another assay has as its target T5, human PILRA, c-term His-Avi tag (human, UniProt Q9UKJ1 20-197, limits assumed).
T5 construct: not shown: C-terminal His-Avi tag
Briefly: SPR (Biacore), antibody captured, PILRA as analyte. The essentials: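 Antibodies were captured at 10 μg/ml on an anti-huFc or anti-msFc CM5 surface, and human PILRA was flowed at 33, 100 and 300 nM in HBSTE/0.5% BSA, pH 7.4. The surface was regenerated with 10 mM glycine-HCl, pH 2.1, after each analyte. Curves were double-referenced with buffer injections.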
B1: the Kd was 36.8 nM, the koff was 0.0014 s⁻¹, the kon turned out to be 37000 M⁻¹ s⁻¹ and the t½ amounted to 8.5 min.
In the case of B6, the dissociation constant (Kd) was below 1.3 nM, the koff is below 0.0001 s⁻¹ and the kon is 75000 M⁻¹ s⁻¹.
Molecule B7 gave a Kd of 65.6 nM, a koff of 0.0012 s⁻¹, a kon of 18000 M⁻¹ s⁻¹ and a t½ of 9.6 min.

The next assay addresses T6, PILRA Fc (soluble human PILRA) (human, UniProt Q9UKJ1 20-197, limits assumed).
T6 construct: also called soluble PILRA; not shown: Fc part, detected with anti-human IgG
Briefly: flow cytometry; blocking of PILRA Fc binding to human CD3+ T cells (Donor 1019). As for the experimental part:
The ability of conditioned media samples containing antibodies to inhibit the binding of PILRA Fc to human CD3+ T cells was assessed. Briefly, conditioned media samples containing antibodies were incubated with 1.25 ug/ml PILRA Fc for 30 min at 4° C. and then added to human T cells. After 30 minutes incubation at 4° C., cells were washed, and bound PILRA Fc was detected with anti-human IgG Alexa 647. Cells were analyzed by flow cytometry on FACS Canto II, and for all cell lines, the amount of PILRA Fc binding (MIFI) and the percentage of PILRA Fc binding in the presence of conditioned media relative to PILRA Fc binding alone was calculated. Several antibodies inhibited binding of PILRA Fc to human T cells, and a few antibodies enhanced PILRA-Fc binding to T cells. Antibodies that show enhancement in this assay may block cis inhibition to promote trans interactions or may allosterically activate to enhance trans interactions without blocking cis.
B1: the IC50 was 4.56 µg/mL.
Same read-out and setting: the result for B2 reads 3.13 µg/mL; that for B3, 2 µg/mL.
With B4, the IC50 is 5.1 µg/mL.
Same read-out and setting: the result for B5 reads 2.2 µg/mL; that for B6, 3.3 µg/mL; that for B7, 2.2 µg/mL.

As usually defined, the EC50 is the midpoint of the concentration-response curve. A high value points to lower potency in that assay. The Kd is the constant that tells how readily two partners part at equilibrium. A low value points to higher affinity. Broadly, the koff is a measure of how fast the partners let go of each other. As a reminder, the kon is the rate constant with which the complex forms. A higher kon goes with faster complex formation. Usually t½ stands for the time in which the quantity being followed falls by half. High values mean slow loss, low ones fast loss. The IC50 is the concentration that inhibits the measured activity by half. A low value points to higher potency.
